Test results taken from US20230272099A1 (Chugai, published 2023).

T1: human FcgRIIa type H extracellular domain (human, UniProt P12318 34-217)
T1 construct: extracellular domain; also called hFcgRIIaH
T1 sequence (looked up): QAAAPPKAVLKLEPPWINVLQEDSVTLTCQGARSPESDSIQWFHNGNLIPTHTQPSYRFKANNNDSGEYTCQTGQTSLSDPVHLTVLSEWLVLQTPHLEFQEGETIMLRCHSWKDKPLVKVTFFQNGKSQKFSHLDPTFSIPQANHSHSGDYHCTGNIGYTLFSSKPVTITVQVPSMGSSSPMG

T2: human FcgRIIa type R extracellular domain (human, UniProt P12318 34-217)
T2 construct: extracellular domain; also called hFcgRIIaR
T2 sequence (looked up): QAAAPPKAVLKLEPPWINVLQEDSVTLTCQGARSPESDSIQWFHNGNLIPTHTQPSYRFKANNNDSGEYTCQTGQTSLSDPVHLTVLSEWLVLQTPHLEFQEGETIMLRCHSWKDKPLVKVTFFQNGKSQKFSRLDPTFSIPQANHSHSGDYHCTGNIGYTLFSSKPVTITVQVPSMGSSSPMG

T3: human FcgRIIb extracellular domain (human, UniProt P31994 43-217)
T3 construct: extracellular domain; also called hFcgRIIb
T3 sequence (looked up): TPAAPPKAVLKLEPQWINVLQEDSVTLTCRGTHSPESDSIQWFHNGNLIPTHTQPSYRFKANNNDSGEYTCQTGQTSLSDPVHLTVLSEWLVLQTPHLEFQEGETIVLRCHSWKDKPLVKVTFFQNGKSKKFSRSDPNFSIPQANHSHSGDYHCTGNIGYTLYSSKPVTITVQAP


Key:
[1] = target: T4, human FcgRIa extracellular domain (human, UniProt P12314 16-292); test: SPR 25C
T4 construct: extracellular domain; also called hFcgRIa
Protocol: (§1) Biacore T200 (GE Healthcare) was used to evaluate the binding activity to the respective human Fcγ receptor (hereafter referred to as FcγR). Measurement was performed at 25° C. using 50 mM phosphate, 150 mM NaCl, 0.05 w/v %-P20, pH 7.4 as buffer. About 1000 RU of antibody was captured using a sensor chip immobilized with CaptureSelect™ Human Fab-lambda Kinetics Biotin Conjugate (Thermo Fisher Scientific) as a molecule for ligand capturing. Human FcγR was diluted to 8 nM for FcγRIa and 1000 nM for other FcγR in the measurement buffer, and it was interacted to the captured antibody. The binding activity of each antibody to FcγR was assessed by calculating the binding amount of FcγR (RU) per unit amount of antibody using Biacore T200 Evaluation Software 2.0.

[2] = target: T1, human FcgRIIa type H extracellular …; test: SPR 25C
Protocol: as §1

[3] = target: T2, human FcgRIIa type R extracellular …; test: SPR 25C
Protocol: as §1

[4] = target: T3, human FcgRIIb extracellular domain; test: SPR 25C
Protocol: as §1

[5] = target: T5, human FcgRIIIa F158 extracellular domain (human, UniProt P08637 17-208); test: SPR 25C
T5 construct: extracellular domain; also called hFcgRIIIaF
Protocol: as §1

[6] = target: T6, human FcgRIIIa V158 extracellular domain (human, UniProt P08637 17-208); test: SPR 25C
T6 construct: extracellular domain; also called hFcgRIIIaV
Protocol: as §1

[7] = target: human FcRn (human, UniProt P55899 24-290; P61769 21-119); test: SPR 25C pH 6.0, steady state
Protocol: Biacore T200 (GE Healthcare) was used to assess the binding activity to human FcRn. Measurement was performed at 25° C. using 50 mM phosphate, 150 mM NaCl, 0.05 w/v %-P20, pH 6.0 as buffer. Human FcRn proteins used for this determination were prepared by the procedure described in WO2010107110. About 400 RU of antibody was captured using a sensor chip immobilized with CaptureSelect™ Human Fab-lambda Kinetics Biotin Conjugate (Thermo Fisher Scientific) as a molecule for ligand capturing, followed by the binding of human FcRn diluted in measuring buffer. The activity of the respective antibodies to bind FcRn was assessed by calculating KD(mol/L) by the steady-state model using Biacore T200 Evaluation Software 2.0.

T5 sequence (P08637 17-208): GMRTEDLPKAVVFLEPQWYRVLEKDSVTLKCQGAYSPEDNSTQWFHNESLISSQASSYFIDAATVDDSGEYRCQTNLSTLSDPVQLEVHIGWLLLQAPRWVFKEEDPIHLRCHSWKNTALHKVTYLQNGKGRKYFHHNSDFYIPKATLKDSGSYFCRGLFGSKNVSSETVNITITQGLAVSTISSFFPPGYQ
T4 sequence (P12314 16-292): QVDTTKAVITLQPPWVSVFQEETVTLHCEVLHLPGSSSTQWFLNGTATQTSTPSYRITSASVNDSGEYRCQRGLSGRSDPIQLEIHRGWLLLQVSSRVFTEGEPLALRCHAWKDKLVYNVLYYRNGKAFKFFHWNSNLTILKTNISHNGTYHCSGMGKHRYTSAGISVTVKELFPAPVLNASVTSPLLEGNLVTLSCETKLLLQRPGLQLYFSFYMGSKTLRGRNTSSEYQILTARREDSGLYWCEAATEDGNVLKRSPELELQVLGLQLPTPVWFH
T6 sequence (P08637 17-208 F176V): as the sequence (P08637 17-208) above, with F160V counted along it

| Binder | binding per 1RU antibody [1] [RU] | relative binding (A375-G1T3/B167-Lamlib=1) [1] | binding per 1RU antibody [2] [RU] | relative binding (A375-G1T3/B167-Lamlib=1) [2] | binding per 1RU antibody [3] [RU] | relative binding (A375-G1T3/B167-Lamlib=1) [3] | binding per 1RU antibody [4] [RU] | relative binding (A375-G1T3/B167-Lamlib=1) [4] | binding per 1RU antibody [5] [RU] | relative binding (A375-G1T3/B167-Lamlib=1) [5] | binding per 1RU antibody [6] [RU] | relative binding (A375-G1T3/B167-Lamlib=1) [6] | Kd [7] [nM] |
| --- | --- | --- | --- | --- | --- | --- | --- | --- | --- | --- | --- | --- | --- |
| A375-MY518a/B167-Lamlib (antibody, human IgG1, lambda, copies: 2 + 2) heavy: EVQLVESGGGLVKPGGSLRLSCAASGFTFSTFTMNWVRQAPGKGLEWVSSISSKSTYIEYADSFKVRFTISRDNAKNSLYLQMNSLRAEDTAVYYCARYGAKNFLNWVFDYWGQGTLVTVSSASTKGPSVFPLAPSSKSTSGGTAALGCLVKDYFPEPVTVSWNSGALTSGVHTFPAVLQSSGLYSLSSVVTVPSSSLGTQTYICNVNHKPSNTKVDKRVEPKSCDKTHTCPPCPAPELWNGPSVFLFPPKPKDTLMISRTPEVTCVVVDVSDEDPEVKFNWYVDGVEVHNAKTKPREELYNSTYRVVSVLTVLHQDWLNGKEYKCKVSNTALPKPIEKTISKAKGQPREPQVYTLPPSREEMTKNQVSLTCLVKGFYPSDIAVEWESNGQPENNYKTTPPVLDSDGSFFLYSKLTVDKSRWQQGNVFSCSVMHEALHNHYTQKSLSLSP light: QSALTQPPSASGSPGQTVTISCTGTRYDVGYYEYVSWYQQHPGKAPKLMIYETSKRLSGVPDRFSGSKSGNTASLTVSGLQAEDEADYYCSSYRYEHQVSFGGGTKLTVLGQPKAAPSVTLFPPSSEELQANKATLVCLISDFYPGAVTVAWKADSSPVKAGVETTTPSKQSNNKYAASSYLSLTPEQWKSHRSYSCQVTHEGSTVEKTVAPTECS | 0.0033 | 0.04 | 0.0479 | 0.84 | 0.047 | 1.01 | 0.0489 | 4.46 | 0.0006 | 0.03 | 0.0009 | 0.01 | 1320 |
| A375-P253/B167-Lamlib (antibody, human IgG1, lambda, copies: 2 + 2) heavy: not shown light: QSALTQPPSASGSPGQTVTISCTGTRYDVGYYEYVSWYQQHPGKAPKLMIYETSKRLSGVPDRFSGSKSGNTASLTVSGLQAEDEADYYCSSYRYEHQVSFGGGTKLTVLGQPKAAPSVTLFPPSSEELQANKATLVCLISDFYPGAVTVAWKADSSPVKAGVETTTPSKQSNNKYAASSYLSLTPEQWKSHRSYSCQVTHEGSTVEKTVAPTECS | 0.0937 | 1.15 | 0.0497 | 0.88 | 0.168 | 3.62 | 0.156 | 14.3 | 0.0056 | 0.26 | 0.0019 | 0.03 | 1420 |
| A375-P587/B167-Lamlib (antibody, human IgG1, lambda, copies: 2 + 2) heavy: EVQLVESGGGLVKPGGSLRLSCAASGFTFSTFTMNWVRQAPGKGLEWVSSISSKSTYIEYADSFKVRFTISRDNAKNSLYLQMNSLRAEDTAVYYCARYGAKNFLNWVFDYWGQGTLVTVSSASTKGPSVFPLAPSSKSTSGGTAALGCLVKDYFPEPVTVSWNSGALTSGVHTFPAVLQSSGLYSLSSVVTVPSSSLGTQTYICNVNHKPSNTKVDKKVEPKSCDKTHTCPPCPAPDLLGGDSVFLFPPKPKDTLMISRTPEVTCVVIDVAEEDGEVKFNWYVDGVEVHNAKTKPREEQYNSTYRVVSVLTVLHQDWLNGKEYKCKVSNKALPAPIEKTISKAKGQPREPQVYTLPPSRDELTKNQVSLTCLVKGFYPSDIAVEWESNGQPENNYKTTPPVLDSDGSFFLYSKLTVDKSRWQQGNVFSCSVMHEALHNHYTQKSLSLSP light: QSALTQPPSASGSPGQTVTISCTGTRYDVGYYEYVSWYQQHPGKAPKLMIYETSKRLSGVPDRFSGSKSGNTASLTVSGLQAEDEADYYCSSYRYEHQVSFGGGTKLTVLGQPKAAPSVTLFPPSSEELQANKATLVCLISDFYPGAVTVAWKADSSPVKAGVETTTPSKQSNNKYAASSYLSLTPEQWKSHRSYSCQVTHEGSTVEKTVAPTECS | 0.0962 | 1.18 | 0.0029 | 0.05 | 0.0371 | 0.8 | 0.143 | 13 | 0.0001 | 0 | 0.0001 | 0 | 1700 |

Now those with a lower Kd [7], led by results:

| binding per 1RU antibody [1] [RU] | relative binding (A375-G1T3/B167-Lamlib=1) [1] | binding per 1RU antibody [2] [RU] | relative binding (A375-G1T3/B167-Lamlib=1) [2] | binding per 1RU antibody [3] [RU] | relative binding (A375-G1T3/B167-Lamlib=1) [3] | binding per 1RU antibody [4] [RU] | relative binding (A375-G1T3/B167-Lamlib=1) [4] | binding per 1RU antibody [5] [RU] | relative binding (A375-G1T3/B167-Lamlib=1) [5] | binding per 1RU antibody [6] [RU] | relative binding (A375-G1T3/B167-Lamlib=1) [6] | Kd [7] [nM] | Binder |
| --- | --- | --- | --- | --- | --- | --- | --- | --- | --- | --- | --- | --- | --- |
| 0.0022 | 0.03 | 0.0514 | 0.91 | 0.0519 | 1.12 | 0.0512 | 4.67 | 0.0012 | 0.06 | 0.0014 | 0.02 | 1100 | A375-SCF025/B167-Lamlib (antibody, human IgG1, lambda) heavy: EVQLVESGGGLVKPGGSLRLSCAASGFTFSTFTMNWVRQAPGKGLEWVSSISSKSTYIEYADSFKVRFTISRDNAKNSLYLQMNSLRAEDTAVYYCARYGAKNFLNWVFDYWGQGTLVTVSSASTKGPSVFPLAPSSKSTSGGTAALGCLVKDYFPEPVTVSWNSGALTSGVHTFPAVLQSSGLYSLSSVVTVPSSSLGTQTYICNVNHKPSNTKVDKKVEPKSCDKTHTCPPCPAPELWNGPSVFLFPPKPKDTLMISRTPEVTCVVVDVSDEDPEVKFNWYVDGVEVHNAKTKPREELYNSTYRVVSVLTVLHQDWLNGKEYKCKVSNTALPKPIEKTISKAKGQRREPQVYTLPPSREEMTKNQVSLTCLVKGFYPSDIAVEWESNGQPENNYKTTPPVLDSDGSFFLYSKLTVKKSRWQQGNVFSCSVMHEALHNHYTQKSLSLSP light: QSALTQPPSASGSPGQTVTISCTGTRYDVGYYEYVSWYQQHPGKAPKLMIYETSKRLSGVPDRFSGSKSGNTASLTVSGLQAEDEADYYCSSYRYEHQVSFGGGTKLTVLGQPKAAPSVTLFPPSSEELQANKATLVCLISDFYPGAVTVAWKADSSPVKAGVETTTPSKQSNNKYAASSYLSLTPEQWKSHRSYSCQVTHEGSTVEKTVAPTECS |
| 0.0021 | 0.03 | 0.0514 | 0.91 | 0.0518 | 1.12 | 0.0511 | 4.67 | 0.0009 | 0.04 | 0.0016 | 0.02 | 1130 | A375-SCF025a/B167-Lamlib (antibody, human IgG1, lambda) heavy: EVQLVESGGGLVKPGGSLRLSCAASGFTFSTFTMNWVRQAPGKGLEWVSSISSKSTYIEYADSFKVRFTISRDNAKNSLYLQMNSLRAEDTAVYYCARYGAKNFLNWVFDYWGQGTLVTVSSASTKGPSVFPLAPSSKSTSGGTAALGCLVKDYFPEPVTVSWNSGALTSGVHTFPAVLQSSGLYSLSSVVTVPSSSLGTQTYICNVNHKPSNTKVDKRVEPKSCDKTHTCPPCPAPELWNGPSVFLFPPKPKDTLMISRTPEVTCVVVDVSDEDPEVKFNWYVDGVEVHNAKTKPREELYNSTYRVVSVLTVLHQDWLNGKEYKCKVSNTALPKPIEKTISKAKGQRREPQVYTLPPSREEMTKNQVSLTCLVKGFYPSDIAVEWESNGQPENNYKTTPPVLDSDGSFFLYSKLTVKKSRWQQGNVFSCSVMHEALHNHYTQKSLSLSP light: QSALTQPPSASGSPGQTVTISCTGTRYDVGYYEYVSWYQQHPGKAPKLMIYETSKRLSGVPDRFSGSKSGNTASLTVSGLQAEDEADYYCSSYRYEHQVSFGGGTKLTVLGQPKAAPSVTLFPPSSEELQANKATLVCLISDFYPGAVTVAWKADSSPVKAGVETTTPSKQSNNKYAASSYLSLTPEQWKSHRSYSCQVTHEGSTVEKTVAPTECS |
